As usually defined, the IC50 is the concentration needed to halve the response being measured.

The chains are these.
B1: Phage displayed wild-type E. coli ClpS (truncated wildtype ClpS polypeptide, FLAG-tagged, fused to phage coat protein p3) (other)
chain: KPPSMYKVILVNDDYTPMEFVIDVLQKFFSYDVERATQLMLAVHYQGKAICGVFTAEVAETKVAMVNKYARENEHPLLCTLEKA
notes: also called ClpS Wt; ClpS WT; not shown: N-terminal FLAG tag
B2: biotinylated peptide X-SDGMFTAGSLIGK(biotin), X = L (peptide)
peptide: LSDGMFTAGSLIGK(Biotin)
notes: also called Leu peptide
B3: ClpS Variant 1 (Trp-binding ClpS variant), phage displayed (designed binder)
chain: B1 chain with M18A, V21C, M40C, V43A, P76A, L77A
notes: tested as phage; also called ClpS variant W1; W1; not shown: N-terminal FLAG tag of the phage display construct; C-terminal phage coat protein p3 of the phage display construct

Test [1] deals with B3. Briefly: competitive phage ELISA: W1 phage equilibrated with free peptide, then on immobilised Wpep(biotin).
Test [2] addresses B3. Put plainly: competitive phage ELISA against immobilised Wpep. (In general: An ELISA detects its analyte on a solid surface through an enzyme-linked reagent.)
The target of test [3] is B3. Put plainly: competitive phage ELISA, 10 uM free peptide against immobilised Wpep.
The target of a further test is T1, streptavidin (UniProt P22629 37-163).
T1 construct: also called SA
Put plainly: phage ELISA, FIG. 6B.

Another test deals with T2, bovine serum albumin (bovine, UniProt P02769 25-607).
T2 construct: also called BSA
Put plainly: phage ELISA, FIG. 6B.

Test [4] concerns the target B1. Put plainly: phage ELISA.
In test [5] the target is B2. Put plainly: phage ELISA.

Positions count from the first letter of the chain named. No end group written: not given here. *: point of attachment. Biotin = O=C1N[C@H]2[C@H](CS[C@H]2CCCCC(=O)*)N1

T1 sequence (P22629 37-163 limits assumed): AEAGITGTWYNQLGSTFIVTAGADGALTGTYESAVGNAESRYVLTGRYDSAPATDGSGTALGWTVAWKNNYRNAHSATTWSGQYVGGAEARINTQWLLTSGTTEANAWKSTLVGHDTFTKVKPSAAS
T2 sequence (P02769 25-607 limits assumed): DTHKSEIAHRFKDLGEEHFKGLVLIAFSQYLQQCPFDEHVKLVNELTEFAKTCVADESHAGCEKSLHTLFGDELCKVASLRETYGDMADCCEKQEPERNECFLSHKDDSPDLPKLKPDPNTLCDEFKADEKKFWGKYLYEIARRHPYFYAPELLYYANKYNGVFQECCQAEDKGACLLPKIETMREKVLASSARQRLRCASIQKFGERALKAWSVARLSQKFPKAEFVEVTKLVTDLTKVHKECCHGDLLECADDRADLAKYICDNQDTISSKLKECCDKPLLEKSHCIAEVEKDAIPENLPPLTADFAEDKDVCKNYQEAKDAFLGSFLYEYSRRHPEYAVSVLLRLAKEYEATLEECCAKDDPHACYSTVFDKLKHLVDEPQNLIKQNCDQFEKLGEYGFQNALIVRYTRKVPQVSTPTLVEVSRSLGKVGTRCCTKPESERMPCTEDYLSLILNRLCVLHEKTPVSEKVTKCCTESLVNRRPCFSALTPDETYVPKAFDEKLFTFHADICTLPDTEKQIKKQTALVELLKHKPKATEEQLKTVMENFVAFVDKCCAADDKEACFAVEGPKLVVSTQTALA

For WSDGMFTAGSLI (also called Wpep) [non-biotinylated peptide XSDGMFTAGSLI, X = W], in test [1], the IC50 is about 1000 nM and the “binding remaining at 10 uM competitor (relative to no competitor)” value worked out at 11%.
For QSDGMFTAGSLI [non-biotinylated peptide XSDGMFTAGSLI, X = Q], the binding result in test [2] was “no binding (tested: 10 uM)”.
In the case of RSDGMFTAGSLI [non-biotinylated peptide XSDGMFTAGSLI, X = R], in test [2], the binding result was “no binding (tested: 10 uM)”.
For the molecule ASDGMFTAGSLI [non-biotinylated peptide XSDGMFTAGSLI, X = A], in test [2], the binding result is given as “no binding (tested: 10 uM)”.
With PSDGMFTAGSLI [non-biotinylated peptide XSDGMFTAGSLI, X = P], in test [2], the binding result is reported as “no binding (tested: 10 uM)”.
The same measure, in the same setting: next, TSDGMFTAGSLI [non-biotinylated peptide XSDGMFTAGSLI, X = T]: “no binding (tested: 10 uM)”.
Still for that read-out and setting: the value for NSDGMFTAGSLI [non-biotinylated peptide XSDGMFTAGSLI, X = N] was “no binding (tested: 10 uM)”; that for KSDGMFTAGSLI [non-biotinylated peptide XSDGMFTAGSLI, X = K] was “no binding (tested: 10 uM)”.
For LSDGMFTAGSLI [non-biotinylated peptide XSDGMFTAGSLI, X = L], the binding result in test [3] is reported as “binds”.
Turning to GSDGMFTAGSLI [non-biotinylated peptide XSDGMFTAGSLI, X = G], the binding result in test [3] was “binds”.
The same measure, in the same setting: the value for FSDGMFTAGSLI [non-biotinylated peptide XSDGMFTAGSLI, X = F] was “binds”.
On to MSDGMFTAGSLI [non-biotinylated peptide XSDGMFTAGSLI, X = M], for which the binding result in test [2] is “no binding (tested: 10 uM)”.
The same measure, in the same setting: next, HSDGMFTAGSLI [non-biotinylated peptide XSDGMFTAGSLI, X = H]: “no binding (tested: 10 uM)”.
ISDGMFTAGSLI [non-biotinylated peptide XSDGMFTAGSLI, X = I]: in test [3], the binding result is listed as “binds”.
With CSDGMFTAGSLI [non-biotinylated peptide XSDGMFTAGSLI, X = C], the binding result in test [2] is reported as “no binding (tested: 10 uM)”.
As for DSDGMFTAGSLI [non-biotinylated peptide XSDGMFTAGSLI, X = D], the binding result in test [2] was “no binding (tested: 10 uM)”.
For the molecule YSDGMFTAGSLI [non-biotinylated peptide XSDGMFTAGSLI, X = Y], in test [3], the binding result is “binds”.
Consider VSDGMFTAGSLI [non-biotinylated peptide XSDGMFTAGSLI, X = V], for which the binding result in test [2] is “no binding (tested: 10 uM)”.
With SSDGMFTAGSLI [non-biotinylated peptide XSDGMFTAGSLI, X = S], the binding result in test [2] is “no binding (tested: 10 uM)”.
Consider ESDGMFTAGSLI [non-biotinylated peptide XSDGMFTAGSLI, X = E], for which the binding result in test [2] is on record as “no binding (tested: 10 uM)”.
B1: the binding result in the test with streptavidin and with bovine serum albumin was “no binding” throughout.
For B2, the binding result in test [4] is reported as “binds”.
As to B3, the binding result in test [5] was “no binding”.
Regarding WSDGMFTAGSLIGK(Biotin) (also called Wpep; Trp peptide) [biotinylated peptide X-SDGMFTAGSLIGK(biotin), X = W], the binding result in test [4] is given as “binds”.

(Values after patent US9566335 (GOVERNING COUNCIL OF THE UNIVERSITY OF TORONTO, dated 2017).)
